Measured values taken from patent US5770717.

Biological target: activation domain-fused yeast RPB4 protein (RPB4 in JG4-5) (yeast (Saccharomyces cerevisiae)) (UniProt P20433)
Assay: two-hybrid interaction trap in yeast, beta-galactosidase assay with and without activation domain-fused RPB4

degree of enhancement of activation (beta-galactosidase assay): 60 fold
Substance: LexA-RPB7 fusion protein (yeast RPB7) (from UniProt P34087)
